{"source": "patent US20250339564A1", "about": "(ACADEMISCH ZIEKENHUIS LEIDEN H O D N LUMC, published 2025)", "binders": {"B1": {"name": "VB5-845D-800CW (Fab, V domains shown)", "VH": "EVQLQQSGPGLVQPGGSVRISCAASGYTFTAYGMNWVRQAPGKGLEWMGWINTYTGESTYADSFKGRFEFSLDTHNSSAYLQIQSLREEDTAVYYCARFAIQGDYWGQGTLVTVSS", "VL": "DIQMTQSPSSLSASVGDRVTITCKSTKSLLHSNGITYLYWYQQKPGSAPKLLIYQMSHLASGVPSRFSSSGSGTDFTLTISSLQPEDFATYYCAQNLEIPRTFGQGTKVEIKR", "modifications": "IRDye 800CW conjugated by N-hydroxysuccinimide ester chemistry to primary amines (sites and chain not stated)"}}, "target": "T1, Epithelial Cell Adhesion Molecule (EpCAM) (human, UniProt P16422 24-314)", "T1 construct": "whole, on cells; Target is endogenous EpCAM in patient tumor tissue: in vivo targeting for m1, FFPE sections for the IHC antibodies", "T1 sequence (looked up)": "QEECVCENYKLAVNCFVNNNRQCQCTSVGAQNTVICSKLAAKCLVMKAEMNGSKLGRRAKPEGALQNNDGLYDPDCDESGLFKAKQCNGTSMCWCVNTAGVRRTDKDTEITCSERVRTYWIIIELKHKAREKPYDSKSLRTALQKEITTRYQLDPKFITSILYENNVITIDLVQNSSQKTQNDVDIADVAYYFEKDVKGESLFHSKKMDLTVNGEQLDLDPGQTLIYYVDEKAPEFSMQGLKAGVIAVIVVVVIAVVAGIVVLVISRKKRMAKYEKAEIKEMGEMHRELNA", "experiment": "NIR fluorescence microscopy (Axio scan) of metastatic lymph node sections after IV dosing, overlaid with EpCAM IHC"}
{"binder": "B1", "values": [{"measurement": "binding result", "result": "binds"}]}
